Experimental data published in patent US20240117030A1 (Pfizer, published 2024).
Residue numbers refer to the chain shown, from its start. Blank lines part the entries; values can stand above or below the binder they belong to.

What was measured:
Assay in all cases: cell-based or functional assay
[1] = target: human IL-13 (human, UniProt P35225 35-146)
[2] = target: T1, recombinant human IL-33 (R&D Systems 3625-IL), reduced with DTT (human, UniProt O95760 112-270, limits assumed)
T1 sequence (looked up): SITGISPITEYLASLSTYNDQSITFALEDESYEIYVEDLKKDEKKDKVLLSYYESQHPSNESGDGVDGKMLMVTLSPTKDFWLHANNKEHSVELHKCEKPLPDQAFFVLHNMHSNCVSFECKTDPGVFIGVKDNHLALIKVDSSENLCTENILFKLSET

[3] = target: T2, human IL-4 (human, UniProt P05112 25-153)
T2 sequence (looked up): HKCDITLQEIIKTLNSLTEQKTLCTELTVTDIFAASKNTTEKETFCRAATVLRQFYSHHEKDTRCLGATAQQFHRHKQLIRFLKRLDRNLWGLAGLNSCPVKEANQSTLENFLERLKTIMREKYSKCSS

[4] = target: T3, human IL-4 (human, UniProt P05112 25-153); remark: listed apart in the source
T3 sequence (looked up): T2 sequence (looked up)

Chain of human IL-13 (P35225 35-146 limits assumed): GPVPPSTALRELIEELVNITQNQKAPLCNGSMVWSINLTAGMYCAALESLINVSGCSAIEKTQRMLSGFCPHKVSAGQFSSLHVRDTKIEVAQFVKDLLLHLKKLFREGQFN

a-hIL-13 bioassay (IC50, pM) [1]: 5.79 pM
B1: IL13-0001 (antibody, human IgG1, kappa, V domains shown)
VH: EVQLVESGGGLVQPGGSLRLSCAASGFTFSSYAMSWVRQAPGKGLEWVASISSGDTTYYPDSVKGRFTISRDNAKNSLYLQMNSLRAEDTAVYYCARNEGYYFGLTLWGQGTLVTVSS
VL: DIQMTQSPSSLSASVGDRVTITCKASESVDHFGWSLVHWYQQKPGKAPKLLIYRASNLESGVPSRFSGSGSGTDFTLTISSLQPEDFATYYCQQSNEDPWTFGGGTKVEIKR

IC50 [nM] versus reduced human IL-33 (R&D), IC50 (AVE) [2]: 0.012 nM
B2: IL33-0713 (antibody, IgG1, V domains shown)
VH: EVQLVESGGGLVQPGGSLRLSCAASGFTFSSYWMYWVRQAPGKGLEWVAAITPNKGVDYYPESVKGRFTISRDNAKNSLYLQMNSLRAEDTAVYYCARGHYYYTSYSLGYWGQGTLVTVSS
VL: DIQMTQSPSSLSASVGDRVTITCRASQPISKHLDWYQQKPGKAPKLLIYFTKNLVTGVPSRFSGSGSGTDFTLTISSLQPEDFATYYCFQYNQGWTFGGGTKVEIK

IC50 [nM] versus reduced human IL-33 (R&D), IC50 (AVE) [2]: 0.012 nM
B3: IL33-0715 (antibody, IgG1, V domains shown)
VH: B2 VH
VL: B2 VL with V55Q, T56S

IC50 [nM] versus reduced human IL-33 (R&D), IC50 (AVE) [2]: 0.009 nM
B4: IL33-0714 (antibody, IgG1, V domains shown)
VH: B2 VH
VL: B2 VL with V55K

fold loss in IL-4 neutralization (CD23 bioassay) relative to IL13433-0006 [3]: ~6.5 fold
B5: IL13433-0607 (trispecific antibody, human IgG1, kappa)
heavy: EVQLVESGGGLVQPGGSLRLSCAASGFTFSSYAMSWVRQAPGKGLEWVASISTGDTTYYPDSVKGRFTISRDNAKNSLYLQMNSLRAEDTAVYYCARNEGYYFGLTQWGRGTLVTVSSASTKGPSVFPKAPSSKSTSGGTAALGCLVKDYFPEPVTVSWNSGALTSGVHTFPAVLQSSGLYSLSSSVTVPSSSLGTQTYICNVNHKPSNTKVDKKVEPKSCDKTHTCPPCPAPEAAGAPSVFLFPPKPKDTLMISRTPEVTCVVVDVSHEDPEVKFNWYVDGVEVHNAKTKPREEQYNSTYRVVSVLTVLHQDWLNGKEYKCKVSNKALPAPIEKTISKAKGQPREPQVCTLPPSREEMTKNQVSLWCLVKGFYPSDIAVEWESNGQPENNYKTTPPVLDSDGSFFLYSKLTVDKSRWQQGNVFSCSVLHEALHSHYTQKSLSLSPGK
chain 1: DIQMTQSPSSLSASVGDRVTITCRASQPISKHLDWYQQKPGKAPKLLIYFTNNLQTGVPSRFSGSGSGTDFTLTISSLQPEDFATYYCFQYNQGWTFGGGTKVEIKRTVAAPSVFIFPPSDEQLKSGTASVVCLLNNFYPREAKVQWKVDNALQSGNSQESVTEQDSKDSTYSLSSTLTLSKADYEKHKVYACEVTHQGLSSPVTKSFNRGECGGGGSEVTLRESGPALVKPTQTLTLTCTFSGFSLSNFGEGLSWIRQPPGKGLEWLAHIYWDDDKRYSTSLKTRLTISKDTSRNQVVLTMTNMDPVDTATYYCARRETVFYWYFDVWGQGTTVTVSSASTKGPSVFPEAPSSKSTSGGTAALGCLVKDYFPEPVTVSWNSGALTSGVHTFPAVLQSSGLYSLGSVVTVPSSSLGTQTYICNVNHKPSNTKVDKKVEPKSCDKTHTCPPCPAPEAAGAPSVFLFPPKPKDTLMISRTPEVTCVVVDVSHEDPEVKFNWYVDGVEVHNAKTKPREEQYNSTYRVVSVLTVLHQDWLNGKEYKCKVSNKALPAPIEKTISKAKGQPREPQVYTLPPCREEMTKNQVSLSCAVKGFYPSDIAVEWESNGQPENNYKTTPPVLDSDGSFFLVSKLTVDKSRWQQGNVFSCSVLHEALHSHYTQKSLSLSPGK
light 1: DIQMTQSPSSLSASVGDRVTITCRASESVDHFGWSLVHWYQQKPGKAPKLLIYRADSLETGVPSRFSGSGSGTDFTLTISSLQPEDFATYYCQQSNEDPWTFGGGTKVEIKRTVAAPSVFIFPPSDEQLKSGTASVSCLLNNFYPREAKVQWKVDNALQSGNSQESVTEQDSKDSTYSLDSTLTLSKADYEKHKVYACEVTHQGLSSPVTKSFNRGEC
light 2: DIQMTQSPSSLSASVGDRVTITCRASQSVDEEGDSYMNWYQQKPGKAPKLLIYAASNLESGVPSRFSGSGSGTDFTLTISSLQPEDFATYYCQQSHKDPPTFGGGTKVEIKRTVAAPSVFIFPPSDEQLKSGTASVSCLLNNFYPREAKVQWKVDNALQSGNSQESVTEQDSKDSTYSLKSTLTLSKADYEKHKVYACEVTHQGLSSPVTKSFNRGEC
chain 2: EVQLVESGGGLVQPGGSLRLSCAASGFTFSSYWMYWVRQAPGKGLEWVAAITPNAGEDYYPESVKGRFTISRDNAKNSLYLQMNSLRAEDTAVYYCARGHYYYTSYSLGYWGQGTLVTVSSASTKGPSVFPLAPSSKSTSGGTAALGCLVKDYFPEPVTVSWNSGALTSGVHTFPAVLQSSGLYSLSSVVTVPSSSLGTQTYICNVNHKPSNTKVDKKVEPKSC

a-hIL-13 bioassay (IC50, pM) [1]: 15.6 pM
a-hIL-4 bioassay IC50, pM) [4]: 5.11 pM
B6: IL413TSLP-0248 (other)
heavy: B5 heavy with T53S, Q107L, R110Q, L429M, S435N
chain 1: SYVLTQPPSVSVAPGQTARITCGGNNLGSKSVHWYQQKPGQAPVLVVYDDSDRPSWIPERFSGSNSGNTATLTISRGEAGDEADYYCQVWDSSSDHVVFGGGTKLTVLGQPKAAPSVTLFPPSSEELQANKATLVCLISDFYPGAVTVAWKADSSPVKAGVETTTPSKQSNNKYAASSYLSLTPEQWKSHRSYSCQVTHEGSTVEKTVAPTECSGGGGSEVTLRESGPALVKPTQTLTLTCTFSGFSLSNFGEGLSWIRQPPGKGLEWLAHIYWDDDKRYNPSLKSRLTISKDTSRNQVVLTMTNMDPVDTATYYCARRETVFYWYFDVWGQGTTVTVSSASTKGPSVFPEAPSSKSTSGGTAALGCLVKDYFPEPVTVSWNSGALTSGVHTFPAVLQSSGLYSLGSVVTVPSSSLGTQTYICNVNHKPSNTKVDKKVEPKSCDKTHTCPPCPAPEAAGAPSVFLFPPKPKDTLMISRTPEVTCVVVDVSHEDPEVKFNWYVDGVEVHNAKTKPREEQYNSTYRVVSVLTVLHQDWLNGKEYKCKVSNKALPAPIEKTISKAKGQPREPQVYTLPPCREEMTKNQVSLSCAVKGFYPSDIAVEWESNGQPENNYKTTPPVLDSDGSFFLVSKLTVDKSRWQQGNVFSCSVMHEALHNHYTQKSLSLSPGK
light 1: B5 light 1 with R24K, D56S, S57N, T60S
light 2: B5 light 2 with R24K, E32D, H96N, K97E
chain 2: not shown

a-hIL-4 bioassay IC50, pM) [4]: 2.39 pM
B7: IL4-0002 (antibody, human IgG1, kappa)
heavy: EVTLRESGPALVKPTQTLTLTCTFSGFSLSNFGEGLSWIRQPPGKGLEWLAHIYWDDDKRYNPSLKSRLTISKDTSRNQVVLTMTNMDPVDTATYYCARRETVFYWYFDVWGQGTTVTVSSASTKGPSVFPLAPSSKSTSGGTAALGCLVKDYFPEPVTVSWNSGALTSGVHTFPAVLQSSGLYSLSSVVTVPSSSLGTQTYICNVNHKPSNTKVDKKVEPKSCDKTHTCPPCPAPEAAGAPSVFLFPPKPKDTLMISRTPEVTCVVVDVSHEDPEVKFNWYVDGVEVHNAKTKPREEQYNSTYRVVSVLTVLHQDWLNGKEYKCKVSNKALPAPIEKTISKAKGQPREPQVYTLPPSREEMTKNQVSLTCLVKGFYPSDIAVEWESNGQPENNYKTTPPVLDSDGSFFLYSKLTVDKSRWQQGNVFSCSVMHEALHNHYTQKSLSLSPGK
light: B5 light 2 with R24K, E32D, H96N, K97E, S137V, K180S

a-hIL-13 bioassay (IC50, pM) [1]: 102 pM
a-hIL-4 bioassay IC50, pM) [4]: 3.68 pM
B8: IL413TSLP-0250 (other)
heavy: B7 heavy with L132E, S187G, S358C, T370S, L372A, Y411V
chain 1: SYVLTQPPSVSVAPGQTARITCGGNNLGSKSVHWYQQKPGQAPVLVVYDDSDRPSWIPERFSGSNSGNTATLTISRGEAGDEADYYCQVWDSSSDHVVFGGGTKLTVLGQPKAAPSVTLFPPSSEELQANKATLVCLISDFYPGAVTVAWKADSSPVKAGVETTTPSKQSNNKYAASSYLSLTPEQWKSHRSYSCQVTHEGSTVEKTVAPTECSGGGGSEVQLVESGGGLVQPGGSLRLSCAASGFTFSSYAMSWVRQAPGKGLEWVASISSGDTTYYPDSVKGRFTISRDNAKNSLYLQMNSLRAEDTAVYYCARNEGYYFGLTLWGQGTLVTVSSASTKGPSVFPKAPSSKSTSGGTAALGCLVKDYFPEPVTVSWNSGALTSGVHTFPAVLQSSGLYSLSSSVTVPSSSLGTQTYICNVNHKPSNTKVDKKVEPKSCDKTHTCPPCPAPEAAGAPSVFLFPPKPKDTLMISRTPEVTCVVVDVSHEDPEVKFNWYVDGVEVHNAKTKPREEQYNSTYRVVSVLTVLHQDWLNGKEYKCKVSNKALPAPIEKTISKAKGQPREPQVCTLPPSREEMTKNQVSLWCLVKGFYPSDIAVEWESNGQPENNYKTTPPVLDSDGSFFLYSKLTVDKSRWQQGNVFSCSVMHEALHNHYTQKSLSLSPGK
light 1: B5 light 2 with R24K, E32D, H96N, K97E
light 2: B5 light 1 with R24K, D56S, S57N, T60S
chain 2: not shown
